Measurements as given in patent publication US20170173114A1, “METHODS AND COMPOSITIONS FOR INDUCTION OF UCP1 EXPRESSION” (Joslin Diabetes Center, Inc., priority 2014, published 2017).
“Also recorded” adds a separate entry of the source.

Columns and labels:
[1] = tested on: UCP1; assay: UCP1 mRNA expression in SVF cells from interscapular brown adipose tissue (BAT-SVF); type: cell-based, C57BL/6 mice; settings: growth media, 3 days; vs control
Method: (§1) Eight 6-week old C57BL/6 male mice were sacrificed. Interscapular BAT and axillary subcutaneous WAT were removed, minced and digested with 1 mg/ml collagenase for 45 minutes at 37° C. in DMEM/F12 media, containing 1% BSA and antibiotics. Digested tissues were filtered through sterile 150 μm nylon mesh and centrifuged at 250×g for 5 minutes. The floating fractions consisting of adipocytes were discarded and the pellets representing the SVF were then resuspended in erythrocyte lysis buffer (154 mM NH4Cl, 10 mM KHCO3, 0.1 mM EDTA) for 10 minutes to remove red blood cells. The cells were further centrifuged at 500×g for 5 minutes, plated at 8×10^5 cells/well of a 24-well plate and grown at 37° C. in DMEM/F12 supplemented with 10% FBS at 37° C.
(§2) To determine if FGF6 treatment of primary adipose progenitors could also increase UCP1 expression as observed in Example 1, stromo-vascular fraction (SVF) cells, which comprise adipocyte progenitors, were isolated from interscapular brown adipose tissue (BAT-SVF) and subcutaneous white adipose tissue (SQ-SVF). SVF cells were subsequently treated with FGF6 or FGF21 in growth media (DMEM+10% FBS) for 3 days, followed by determination of UCP1 expression. As described in FIGS. 9A and 9B, FGF21 treatment had little effect on UCP1 mRNA expression in either type of SVF cells, as compared to the control. […]

[2] = tested on: UCP1; assay: UCP1 mRNA expression (Q-RT-PCR) in WT-1 brown preadipocytes; type: cell-based, murine
Method: Total RNA was isolated with QIAzol lysis reagent (Qiagen, Valencia, Calif.) and purified by RNeasy Mini columns (Qiagen) following the manufacture's instructions. cDNA was prepared from total RNA using the Advantage RT-PCR kit (BD Biosciences, Palo Alto, Calif.) according to manufacturer's instructions. Diluted cDNA was used in a PCR reaction with SYBR Green Master Mix (Applied Biosystems, Foster City, Calif.) and primers specifically designed for detection of the gene of interest. PCR reactions were run in duplicate for each sample and quantitated in the ABI Sequence Detection System (Applied Biosystems). Data were expressed as arbitrary units after normalization to levels of expression of internal controls for each sample. Sequences of primers for specific genes are each obtained from the published literature or designed using publically available gene sequence databases. Unless otherwise indicated, gene expression data described in the examples below was obtained using QPCR.
The effect of FGF6 on differentiation of WT-1 murine brown preadipocytes was also examined. WT-1 cells can be induced to undergo brown adipocyte differentiation, characterized by lipid accumulation and expression of adipogenic and brown fat markers, as described above (Klein et al. (1999) J Biol Chem 274:34795; Tseng et al. (2005) Nat Cell Biol 7:601). WT-1 cells were treated with FGF6 in growth media (DMEM+10% FBS), a vehicle control (“control” or “C” referred to in FIGS. 3A-D), or induction media (“induction” or “I” referred to in FIGS. 3A-D) as described above for seven days. Following the treatment, cells were examined for the color of the culture media in combination with oil Red O staining, expression of adipogenic markers, expression of brown fat markers, immunofluorescent staining of cells with UCP1 and DPAI, and Western blot analysis to determine the presence of UCP1 and β-tubulin. The results are described in FIGS. 3A to 3D.
UCP1 mRNA expression in brown adipocyte cells was determined at FGF6 concentrations ranging from 0 to 300 ng/ml in the absence of induction cocktail.
In order to determine the length of time necessary to induce UCP1 expression upon exposure to of cells to FGF6, an experiment was performed whereby FGF6 was administered to brown preadipocytes at a concentration of 200 ng/ml and UCP1 expression was determined. FGF21 and a control were also used in the time course experiment. FGF21, a member of the endocrine FGF ligands that has been implicated in the browning of white fat (Fisher F. M. et al., Genes Dev. 26:271-281, 2012). […] FGF6 could acutely induce a significant increase of UCP1 expression as early as 4 hours after a 200 ng/ml dose, as described in FIG. 4B. At 24 hours, the fold-induction of UCP1 mRNA by FGF6 reached 700-fold higher than the untreated cells, as described in FIG. 4B.
To assess FGF6's role in the regulation of mitochondrial activity, FGF6 was stably expressed in WT-1 brown preadipocytes and 3T3-F442A white preadipocytes. Stable cells were generated by viral infection followed by drug selection.
FGF2, FGF6 and FGF9 were used at a dosage of 50 ng/mL, 100 ng/mL, 200 ng/mL or 300 ng/mL. FGF21 was used at the dosage of 50 ng/ml and 500 ng/mL. The concentration of BMP7 was 3.3 nM. RNA was isolated and UCP1 and PPARγ expression levels were evaluated by quantitative reverse transcription polymerase chain reaction (Q-RT-PCR) analysis after 24 hours (i.e., 1 day) (FIG. 14A), 2 days (FIG. 14B), 5 days (FIG. 14C) and 7 days (FIG. 14D) of treatment. All experiments were performed triplicate and the data are presented as mean+/−SEM.
FGF2, FGF6 and FGF9 were used at a dosage of 200 ng/mL. FGF21 was used at a dosage of 500 ng/mL. The concentration of BMP7 was 3.3 nM. mRNA was isolated and UCP1 and PPARγ expression levels were evaluated by quantitative reverse transcription polymerase chain reaction (Q-RT-PCR) analysis after 24 hours (i.e., 1 day), 2 days, 5 days and 7 days of treatment (FIG. 15). […]

[3] = tested on: UCP1; assay: UCP1 mRNA expression in C2C12 myogenic progenitors; type: cell-based; settings: three days
[4] = tested on: UCP1; assay: UCP1 mRNA expression in SVF cells from subcutaneous white adipose tissue (SQ-SVF); type: cell-based, C57BL/6 mice; settings: growth media, 3 days; vs control
Method: as §1, §2

[5] = tested on: WT-1 brown preadipocytes; assay: 2-deoxy-[3H]glucose uptake in WT-1 brown preadipocytes; type: cell-based, murine; settings: FGF6 overexpressing vs control and EGF
Method: (§3) The following glucose uptake assay was used to determine whether FGF6 could impact cellular glucose uptake. Specifically, glucose uptake was monitored in WT-1 brown preadipocytes and 3T3-F442A white preadipocytes in the presence or absence of FGF6. After serum starvation in DMEM/H medium containing 1% of BSA for 2-3 h, cells were washed with HEPES buffer and then incubated with or without 100 nM insulin for 30 min in DMEM/H medium containing 1% of BSA. Glucose transport was determined by the addition of 2-deoxy-[3H]glucose (0.1 mM, 0.5 μCi/mL; PerkinElmer Life and Analytical Science, Waltham, Mass.). After 5 minutes of incubation, the reaction was stopped by ice-cold PBS and cells were washed twice with ice-cold PBS. Cells were then lysed in 0.1% SDS, and glucose uptake was assessed in 4 mL of scintillant using Beckman LS6500 scintillation counter (Beckman Coulter, Indianapolis Ind.). Nonspecific 2-deoxy-[3H]glucose uptake was measured in the presence of cytochalasin B (20 μM) and was subtracted from the total uptake to get specific glucose uptake. Results were expressed as the mean±s.e.m. of the indicated number of experiments. The protein content was determined by the Bradford method.
The role of PGs in regulating mitochondrial function and cellular glucose uptake was also assessed. […]

[6] = tested on: 3T3-F442A white preadipocytes; assay: 2-deoxy-[3H]glucose uptake in 3T3-F442A white preadipocytes; type: cell-based; settings: FGF6 overexpressing vs control and EGF
Method: as §3

[7] = FGF21 50 and 500 ng/mL, BMP7 3.3 nM, with insulin and T3

B1: FGF21: fibroblast growth factor 21, member of the endocrine FGF ligands (protein, listed as Homo sapiens)
chain: MDSDETGFEHSGLWVSVLAGLLLGACQAHPIPDSSPLLQFGGQVRQRYLYTDDAQQTEAHLEIREDGTVGGAADQSPESLLQLKALKPGVIQILGVKTSRFLCQRPDGALYGSLHFDPEACSFRELLLEDGYNVYQSEAHGLPLHLPGNKSPHRDPAPRGPARFLPLPGLPPALPEPPGILAPQPPDVGSSDPLSMVGPSQGRSPSYAS
- effect on UCP1 mRNA expression in BAT-SVF [1]: little effect
- UCP1 expression level, time course ([2]; FGF2, FGF6, FGF9 200 ng/mL, FGF21 500 ng/mL, with insulin and T3, 1, 2, 5, 7 days): did not express detectable amounts of UCP1
- UCP1 expression level at day 7 [2, 7]: only minimal amounts
- UCP1 expression level at days 1, 2 and 5 [2, 7]: did not express detectable amounts of UCP1
- effect on UCP1 expression in brown preadipocytes cultured in growth media ([2]; data not shown): marginal effect
- UCP1 mRNA expression in C2C12 myogenic progenitors [3]: neither FGF6 nor FGF21 induced UCP1 mRNA expression; also recorded: no induction of UCP1
- effect on UCP1 mRNA expression in SQ-SVF [4]: little effect

B2: EGF: control treatment in glucose uptake assay (protein, UniProt P01133 23-1207, looked up)
Pro-epidermal growth factor: PQHWSCPEGTLAGNGNSTCVGPAPFLIFSHGNSIFRIDTEGTNYEQLVVDAGVSVIMDFHYNEKRIYWVDLERQLLQRVFLNGSRQERVCNIEKNVSGMAINWINEEVIWSNQQEGIITVTDMKGNNSHILLSALKYPANVAVDPVERFIFWSSEVAGSLYRADLDGVGVKALLETSEKITAVSLDVLDKRLFWIQYNREGSNSLICSCDYDGGSVHISKHPTQHNLFAMSLFGDRIFYSTWKMKTIWIANKHTGKDMVRINLHSSFVPLGELKVVHPLAQPKAEDDTWEPEQKLCKLRKGNCSSTVCGQDLQSHLCMCAEGYALSRDRKYCEDVNECAFWNHGCTLGCKNTPGSYYCTCPVGFVLLPDGKRCHQLVSCPRNVSECSHDCVLTSEGPLCFCPEGSVLERDGKTCSGCSSPDNGGCSQLCVPLSPVSWECDCFPGYDLQLDEKSCAASGPQPFLLFANSQDIRHMHFDGTDYGTLLSQQMGMVYALDHDPVENKIYFAHTALKWIERANMDGSQRERLIEEGVDVPEGLAVDWIGRRFYWTDRGKSLIGRSDLNGKRSKIITKENISQPRGIAVHPMAKRLFWTDTGINPRIESSSLQGLGRLVIASSDLIWPSGITIDFLTDKLYWCDAKQSVIEMANLDGSKRRRLTQNDVGHPFAVAVFEDYVWFSDWAMPSVMRVNKRTGKDRVRLQGSMLKPSSLVVVHPLAKPGADPCLYQNGGCEHICKKRLGTAWCSCREGFMKASDGKTCLALDGHQLLAGGEVDLKNQVTPLDILSKTRVSEDNITESQHMLVAEIMVSDQDDCAPVGCSMYARCISEGEDATCQCLKGFAGDGKLCSDIDECEMGVPVCPPASSKCINTEGGYVCRCSEGYQGDGIHCLDIDECQLGEHSCGENASCTNTEGGYTCMCAGRLSEPGLICPDSTPPPHLREDDHHYSVRNSDSECPLSHDGYCLHDGVCMYIEALDKYACNCVVGYIGERCQYRDLKWWELRHAGHGQQQKVIVVAVCVVVLVMLLLLSLWGAHYYRTQKLLSKNPKNPYEESSRDVRSRRPADTEDGMSSCPQPWFVVIKEHQDLKNGGQPVAGEDGQAADGSMQPTSWRQEPQLCGMGTEQGCWIPVSSDKGSCPQVMERSFHMPSYGTQTLEGGVEKPHSLLSANPLWQQRALDPPHQMELTQ
modifications: Pro-epidermal growth factor
- glucose uptake level in WT-1 (brown) preadipocytes [5]: no substantial effect
- glucose uptake level in F442A (white) preadipocytes [6]: no substantial effect
